Data as given in article doi:10.1101/833699 (bioRxiv, 2019).

How the values were obtained:
[1] = target: the molecule itself; experiment: SEC-MALS
[2] = target: the molecule itself; experiment: AUC + SEC-MALS

Protein | stoichiometry N [1] | stoichiometry N [2]
ΔRBD2-CDTb (residues 212-751), CDTb construct that lacks the C-terminal receptor binding domain 2 (domain or fragment) SDWEDEDLDTDNDNIPDSYERNGYTIKDLIAVKWEDSFAEQGYKKYVSNYLESNTAGDPYTDYEKASGSFDKAIKTEARDPLVAAYPIVGVGMEKLIISTNEHASTDQGKTVSRATTNSKTESNTAGVSVNVGYQNGFTANVTTNYSHTTDNSTAVQDSNGESWNTGLSINKGESAYINANVRYYNTGTAPMYKVTPTTNLVLDGDTLSTIKAQENQIGNNLSPGDTYPKKGLSPLALNTMDQFSSRLIPINYDQLKKLDAGKQIKLETTQVSGNFGTKNSSGQIVTEGNSWSDYISQIDSISASIILDTENESYERRVTAKNLQDPEDKTPELTIGEAIEKAFGATKKDGLLYFNDIPIDESCVELIFDDNTANKIKDSLKTLSDKKIYNVKLERGMNILIKTPTYFTNFDDYNNYPSTWSNVNTTNQDGLQGSANKLNGETKIKIPMSELKPYKRYVFSGYSKDPLTSNSIIVKIKAKEEKTDYLVPEQGYTKFSYEFETTEKDSSNIEITLIGSGTTYLDNLSITELNSTPEILDEP | 7 | 
activated CDTb (aCDTb; residues 212-876), cell-binding and pore-forming component of the C. difficile binary toxin (CDT) (domain or fragment) SDWEDEDLDTDNDNIPDSYERNGYTIKDLIAVKWEDSFAEQGYKKYVSNYLESNTAGDPYTDYEKASGSFDKAIKTEARDPLVAAYPIVGVGMEKLIISTNEHASTDQGKTVSRATTNSKTESNTAGVSVNVGYQNGFTANVTTNYSHTTDNSTAVQDSNGESWNTGLSINKGESAYINANVRYYNTGTAPMYKVTPTTNLVLDGDTLSTIKAQENQIGNNLSPGDTYPKKGLSPLALNTMDQFSSRLIPINYDQLKKLDAGKQIKLETTQVSGNFGTKNSSGQIVTEGNSWSDYISQIDSISASIILDTENESYERRVTAKNLQDPEDKTPELTIGEAIEKAFGATKKDGLLYFNDIPIDESCVELIFDDNTANKIKDSLKTLSDKKIYNVKLERGMNILIKTPTYFTNFDDYNNYPSTWSNVNTTNQDGLQGSANKLNGETKIKIPMSELKPYKRYVFSGYSKDPLTSNSIIVKIKAKEEKTDYLVPEQGYTKFSYEFETTEKDSSNIEITLIGSGTTYLDNLSITELNSTPEILDEPEVKIPTDQEIMDAHKIYFADLNFNPSTGNTYINGMYFAPTQTNKEALDYIQKYRVEATLQYSGFKDIGTKDKEMRNYLGDPNQPKTNYVNLRSYFTGGENIMTYKKLRIYAITPDDRELLVLSVD |  | 14
